Numbering of substitutions follows the chain as printed. Read-outs that look alike come from different tables or passages of the source. Blank lines part the entries; values can stand above or below the binder they belong to.
Legend:
[1] = molecular target: T1, recombinant human TL1A (human, UniProt O95150 71-251); test: cell-based or functional assay
T1 chain: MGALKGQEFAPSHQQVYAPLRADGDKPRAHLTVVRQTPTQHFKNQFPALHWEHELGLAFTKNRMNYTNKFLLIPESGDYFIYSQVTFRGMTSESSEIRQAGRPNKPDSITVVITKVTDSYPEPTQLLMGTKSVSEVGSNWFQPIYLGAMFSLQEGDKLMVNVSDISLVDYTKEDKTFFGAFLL

[2] = molecular target: T1, recombinant human TL1A; test: competition ELISA, coated TL1A, competitor bio-TL1A-0002
Procedure: (§1) For this competition ELISA assay procedure, 96-well high binding plates (Corning, product number 3590) were coated with 1 μg/mL recombinant TL1A in 100 μL/well in Phospate Buffered Saline (PBS) overnight at 4° C. Plates were then blocked in PBS+0.02% casein solution and washed with PBS+0.05% Tween-20 following standard ELISA protocol. […] Plates were washed with PBS+0.05% Tween-20 following standard ELISA protocol, and Streptavidin-HRP (Southern Biotech, product number 7100-05) diluted to 1:10,000 in assay buffer was added to plates and incubated for 25-30 minutes at room temperature. Next, the plates were washed with PBS+0.05% Tween-20 following standard ELISA protocol, and then TMB substrate (BioFX Laboratories, catalog number TMBW-0100-01) was added to plates. Reactions were stopped after approximately 5 minutes by adding 0.18 M ortho-phosphoric acid to each well and absorbance was read at 450 nm.

[3] = molecular target: T2, full-length human TL1A on CHO-K1 cells (human, UniProt O95150 1-251); test: flow cytometry, CHO-K1 cells expressing human TL1A, 133 nM; cells, antibody at 133 nM
T2 construct: whole, on cells; also called cells over-expressing human TL1A
T2 sequence (looked up): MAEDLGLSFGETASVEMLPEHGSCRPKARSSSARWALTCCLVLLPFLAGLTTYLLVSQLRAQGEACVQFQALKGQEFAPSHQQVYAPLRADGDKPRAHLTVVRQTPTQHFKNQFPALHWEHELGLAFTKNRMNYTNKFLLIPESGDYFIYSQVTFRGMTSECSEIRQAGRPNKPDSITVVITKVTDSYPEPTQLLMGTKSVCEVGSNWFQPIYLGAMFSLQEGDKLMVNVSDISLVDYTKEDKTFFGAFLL

[4] = molecular target: T2, full-length human TL1A on CHO-K1 cells; test: flow cytometry on CHO-K1 cells stably expressing full-length human TL1A, PE anti-human IgG, median fluorescent intensity
Procedure: A cell binding assay was performed to examine if the panel of [xTL1A] bivalent antibody variants could bind to human TL1A over-expressed on the cell surface. […] [xTL1A] bivalent antibody variants were incubated with cells on ice for 30-60 minutes at a concentration of either 1 μg/mL or 20 μg/mL. Cells were pelleted by centrifugation at 1500 RPM for 5 minutes at 4° C. and supernatant was discarded by aspiration. The cells were washed three times with DPBS with 4% FBS buffer as described. Cells were resuspended in 100 μL of PE-anti-human IgG (Life technologies Catalog number H10104) diluted 1:500 in DPBS with 4% FBS buffer and incubated on ice for 15 minutes. Cells were washed three times as described and resuspended in 200 μL of DPBS with 4% FBS buffer, then run on a flow cytometry instrument.

[5] = molecular target: T1, recombinant human TL1A; test: competition ELISA on plate-coated recombinant human TL1A, competitor biotinylated TL1A-0260 (bio-TL1A-0260), streptavidin-HRP, OD450
Procedure: as §1, with “Laboratories Catalog” for “Laboratories, catalog”

[6] = molecular target: T1, recombinant human TL1A; test: as above
Procedure: as §1, with “Laboratories Catalog” for “Laboratories, catalog”

[7] = molecular target: T1, recombinant human TL1A; test: as above
Procedure: as §1, with “Laboratories Catalog” for “Laboratories, catalog”

[8] = molecular target: T1, recombinant human TL1A; test: as above
Procedure: as §1, with “Laboratories Catalog” for “Laboratories, catalog”

[9] = molecular target: T3, recombinant human TL1A (human, UniProt O95150 71-251); test: cell-based or functional assay
T3 chain: T1 chain

[10] = molecular target: T4, bovine serum albumin (bovine, UniProt P02769 25-607); test: direct binding ELISA on coated BSA
T4 construct: also called BSA
Procedure: (§2) For the direct binding ELISA method to HSA or BSA, 96-well high binding plates (Corning, product number 3590) were coated with 1 μg/mL recombinant HSA or BSA in 100 μL/well in PBS overnight at 4° C. Plates were then blocked in PBS+0.02% casein solution and washed with PBS+0.05% Tween-20 following standard ELISA protocol. […] Plates were washed with PBS+0.05% Tween-20 following standard ELISA protocol, and goat anti-human IgG-Fc HRP conjugated secondary antibody (Pierce, #31413) diluted to 1:10,000 in assay buffer was added to plates and incubated for 1 hour at room temperature. Next, the plates were washed with PBS+0.05% Tween-20 following standard ELISA protocol, and then TMB substrate (BioFX Laboratories, catalog number TMBW-0100-01) was added to plates.
(§3) Reactions were stopped after approximately 5 minutes by adding 0.18 M ortho-phosphoric acid to each well and absorbance was read at 450 nm. […] For this method, samples diluted to 0.3 mg/mL were dispensed into the sample tray of a MicroCal VP-Capillary DSC with Autosampler (Malvern Instruments, Inc.), equilibrated for 5 minutes at 10° C. and then scanned up to 110° C. at a rate of 100° C. per/hour. A filtering period of 16 seconds was selected. Raw data was baseline corrected and the protein concentration was normalized. Origin Software 7.0 (Origin Lab Corporation, Northampton, MA) was used to fit the data to an MN2-State Model with an appropriate number of transitions.

[11] = molecular target: T5, human serum albumin (human, UniProt P02768 25-609); test: direct binding ELISA on coated HSA
T5 construct: also called HSA
Procedure: as §2, §3

[12] = molecular target: T6, recombinant cynomolgus monkey TL1A (cynomolgus monkey, UniProt O95150 72-251 (human entry)); test: SPR, antibody injected over captured biotinylated TL1A, 37° C.
T6 construct: biotinylated for SPR capture; also called cyno TL1A
T6 chain: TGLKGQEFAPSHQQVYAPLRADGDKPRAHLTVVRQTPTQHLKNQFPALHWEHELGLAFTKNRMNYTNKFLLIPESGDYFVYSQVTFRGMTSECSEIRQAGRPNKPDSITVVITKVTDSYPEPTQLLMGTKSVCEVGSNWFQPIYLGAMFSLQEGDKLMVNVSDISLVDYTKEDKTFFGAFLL
Procedure: (§4) For these analyses, kinetic assays were conducted at 37° C. using a collection rate of 10 Hz on a Biacore™ T200 instrument (GE Healthcare). […] The association phase was 90 seconds, and the dissociation phases were 1600 seconds over human, cynomolgus monkey and rabbit TL1A and 180 seconds for mouse and rat TL1A.
(§5) In order to determine binding to TL1A, kinetic assays were conducted at 37° C. using a collection rate of 10 Hz on a Biacore™ T200 instrument (GE Healthcare).

[13] = molecular target: T7, recombinant mouse TL1A (mouse, UniProt Q5UBV8 75-252); test: as above
T7 construct: biotinylated for SPR capture
T7 chain: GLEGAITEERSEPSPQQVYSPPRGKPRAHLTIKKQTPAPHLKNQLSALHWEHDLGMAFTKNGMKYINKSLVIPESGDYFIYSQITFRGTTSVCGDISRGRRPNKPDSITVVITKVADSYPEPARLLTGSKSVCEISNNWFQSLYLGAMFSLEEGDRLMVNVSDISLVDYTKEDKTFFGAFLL
Procedure: as §4, §5

[14] = molecular target: T3, recombinant human TL1A; test: competition ELISA vs bio-TL1A-0002
[15] = molecular target: T3, recombinant human TL1A; test: competition ELISA vs bio-TL1A-0002
Procedure: as §1

[16] = molecular target: T3, recombinant human TL1A; test: ELISA, biotinylated antibody on coated recombinant TL1A

T4 sequence (P02769 25-607 limits assumed): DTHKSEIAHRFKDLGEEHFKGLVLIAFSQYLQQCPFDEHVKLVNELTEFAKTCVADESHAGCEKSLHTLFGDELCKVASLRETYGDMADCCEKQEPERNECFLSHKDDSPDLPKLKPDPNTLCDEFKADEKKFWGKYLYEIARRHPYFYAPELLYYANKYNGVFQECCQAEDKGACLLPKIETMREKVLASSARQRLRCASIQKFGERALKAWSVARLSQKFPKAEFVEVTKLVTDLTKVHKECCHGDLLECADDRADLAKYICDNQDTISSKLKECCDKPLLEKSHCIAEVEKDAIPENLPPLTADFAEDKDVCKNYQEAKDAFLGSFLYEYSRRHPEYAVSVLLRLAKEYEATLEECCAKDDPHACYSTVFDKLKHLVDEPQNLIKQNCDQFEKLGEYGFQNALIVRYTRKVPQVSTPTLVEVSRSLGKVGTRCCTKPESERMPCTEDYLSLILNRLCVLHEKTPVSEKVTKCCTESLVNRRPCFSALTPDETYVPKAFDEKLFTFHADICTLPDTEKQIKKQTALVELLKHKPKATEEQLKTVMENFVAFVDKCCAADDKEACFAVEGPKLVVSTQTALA

TF-1 NF-κB reporter cell bioassay IC50 [1]: 29.2 nM
TF-1 NF-κB reporter cell bioassay, Bioactivity relative to TL1A-0002 [1]: 0.8 fold
Whole blood IFNγ assay IC50 [1]: 0.755 nM
Whole blood IFNγ assay, Bioactivity relative to TL1A-0002 [1]: 0.9 fold
Bioactivity relative to TL1A-0002 [2]: 1.3 fold
IC50 [2]: 6.8 nM
binding result [4]: binds
IC50 (read off the curve) [5]: ~4 nM
IC50 (read off the curve) [6]: ~7 nM
IC50 (read off the curve) [7]: ~4 nM
IC50 (read off the curve) [8]: ~4 nM
B2: TL1A-0260 (antibody, human IgG1, kappa, V domains shown)
VH: QVQLVQSGAEVKKPGASVKVSCKASGYDYTYYGISWVRQAPGQGLEWMGWISTYNTGTHYAPSLQGRVTMTTDTSTSTAYMELRSLRSDDTAVYYCARESYYGSGAFRGGMDVWGQGTTVTVSS
VL: DIQMTQSPSSLSASVGDRVTITCRASQSVSSYLAWYQQKPGKAPKLLIYDASNRATGVPSRFSGSGSGTDFTLTISSLQPEDFATYYCQQRSNWPWTFGQGTKVEIKR
notes: human IgG1 effector-function-minimized/kappa; also called bio-TL1A-0260 (biotinylated reporter)

Bioactivity relative to TL1A-0002 [14]: 1 fold
IC50 [14]: 4.5 nM
Bioactivity relative to TL1A-0002 [15]: 1 fold
IC50 [15]: 4.5 nM
EC50 [16]: 5 ng/mL
B5: TL1A-0002 (antibody, human IgG1, kappa, V domains shown)
VH: B2 VH with Y29F, T56G, G57N, P62R, S63M, S77R, S100N, F107Y
VL: EIVLTQSPATLSLSPGERATLSCRASQSVSSYLAWYQQKPGQAPRLLIYDASNRATGIPARFSGSGSGTDFTLTISSLEPEDFAVYYCQQRSNWPWTFGQGTKVEIKR
notes: human IgG1/kappa, effector function minimized; also called bioTL1A-0002 (biotinylated)

Further lines, the binder ahead of its results:

B1: TL1A-0002 (antibody, human IgG1, kappa, V domains shown)
VH: B2 VH with Y29F, T56G, G57N, P62R, S63M, S77R, S100N, F107Y
VL: B5 VL
notes: human IgG1 effector-function-minimized/kappa; also called parental TL1A-0002
TF-1 NF-κB reporter cell bioassay IC50 [1]: 34.7 nM
TF-1 NF-κB reporter cell bioassay, Bioactivity relative to TL1A-0002 [1]: 1 fold
Whole blood IFNγ assay IC50 [1]: 0.83 nM
Whole blood IFNγ assay, Bioactivity relative to TL1A-0002 [1]: 1 fold
Bioactivity relative to TL1A-0002 [2]: 1 fold
IC50 [2]: 5 nM
binding result [3]: binds

B3: [xTL1A]-0341 (antibody, human IgG1, kappa, V domains shown)
VH: QVQLVQSGAEVKKPGASVKVSCKASGYTFTSYGISWVRQAPGQGLEWMGWISAYNGNTNYAQKLQGRVTMTTDTSTSTAYMELRSLRSDDTAVYYCARESSYGSEAFRAGMDVWGQGTTVTVSS
VL: B2 VL
notes: bivalent disabled antibody, IgG1 effector-function-minimized/kappa
binding result [4]: no binding (tested: 20 ug/mL)
binding result [6]: no binding (tested: 300 nM)

B4: TL1A-0372 monovalent bispecific antibody (bispecific antibody, human IgG1, kappa)
heavy 1: QVQLVQSGAEVKKPGASVKVSCKASGYDYTYYGISWVRQAPGQGLEWMGWISTYNTGTHYAPSLQGRVTMTTDTSTSTAYMELRSLRSDDTAVYYCARESYYGSGAFRGGMDVWGQGTTVTVSSASTKGPSVFPLAPSSKSTSGGTAALGCLVKDYFPEPVTVSWNSGALTSGVHTFPAVLQSSGLYSLSSVVTVPSSSLGTQTYICNVNHKPSNTKVDKKVEPKSCDKTHTCPPCPAPEAAGAPSVFLFPPKPKDTLMISRTPEVTCVVVDVSHEDPEVKFNWYVDGVEVHNAKTKPREEQYNSTYRVVSVLTVLHQDWLNGKEYKCKVSNKALPAPIEKTISKAKGQPREPQVCTLPPSREEMTKNQVSLWCLVKGFYPSDIAVEWESNGQPENNYKTTPPVLDSDGSFFLYSKLTVDKSRWQQGNVFSCSVLHEALHSHYTQKSLSLSPGK
heavy 2: not shown
light: not shown
notes: KiH, LS
NF-κB assay in TF-1 reporter cells, neutralization relative to TL1A-0002 [9]: ≤ 2 fold
binding result [10]: no binding (tested: 0.5-1000 nM)
binding result [11]: no binding (tested: 0.5-1000 nM)
fold higher affinity to human TL1A than to this TL1A [12]: ~2 fold
fold higher affinity to human TL1A than to this TL1A [13]: ~546 fold

Reference: patent US20240059799A1 (Pfizer, published 2024)
